Test results reported in patent US12065466B2, “Methods and compositions for protein sequencing” (Quantum-Si Incorporated, priority 2020, dated 2024).

B1: PS430: ClpS protein, SEQ ID NO: 53 (protein)
chain: MQPFEETYTDVLDEVVDTDVHNLVVFNDDVNTFDHVIETLIDVCKHTPEQAEQCTLLIHYKGKCSVKNGSWEELVPMRNEICRRGISAEVLK
B2: PS371: ClpS protein, SEQ ID NO: 4 (protein)
chain: MATETIERPRTRDPGSGLGGHWLVIVLNDDHNTFDHVAKTLARVIPGVTVDDGYRFADQIHQRGQAIVWRGPKEPAEHYWEQLQDAGLSMAPLERH
B3: PS424: ClpS protein, SEQ ID NO: 47 (protein)
chain: MSVETIEKRSTTRKLAPQYRVLLHNDDYNSMEYVVQVLMTSVPSITQPQAVNIMMEAHNSGLALVITCAQEHAEFYCETLKGHGLSSTIEPD
B4: PS421: ClpS protein, SEQ ID NO: 44 (protein)
chain: MTTPNKRPEFEPEIGLEDEVGEPRKYKVLLHNDDYTTMDFVVQVLIEVFRKSETEATHIMLTIHEKGVGTCGIYPAEVAETKINEVHTRARREGFPLRASMEEV
B5: PS425: ClpS protein, SEQ ID NO: 48 (protein)
chain: MTHYFSNILRDQESPKINPKELEQIDVLEEKEHQIILYNDDVNTFEHVIDCLVKICEHNYLQAEQCAYIVHHSGKCSVKTGSLDELVPKCNALLEEGLSAEVV
B6: PS432: ClpS protein, SEQ ID NO: 55 (protein)
chain: MIGVEARTSSAPELAIETEIRLAGLWHVIVINDPVNLMSYVVMVLRKIFGFDDTKARKHMLEVHENGRSIVWSGEREPAEAYANTLHQWHLSAVLERDETD
B7: PS427: ClpS protein, SEQ ID NO: 50 (protein)
chain: MSTKEKVKERVREKEAISFNNEIIVYNDDVNTFDHVIETLIRVCNHTPEQAEQCSLIVHYNGKCTVKTGSMDKLKPQCTQLLEAGLSAEIV
B8: PS419: ClpS protein, SEQ ID NO: 42 (protein)
chain: MEKEQSLCKEKTHVELSEPKHYKVVFHNDDFTTMDFVVKVLQLVFFKSQLQAEDLTMKIHLEGSATAGIYSYDIAQSKAQKTTQMAREEGFPLRLTVEPEDN
B9: PS426: ClpS protein, SEQ ID NO: 49 (protein)
chain: MSIIEKTQENVAILEKVSINHEIILYNDDVNTFDHVIETLIRVCNHEELQAEQCAILVHYTGKCAVKTGSFDELQPLCLALLDAGLSAEIT
B10: PS422: ClpS protein, SEQ ID NO: 45 (protein)
chain: MTQIKPQTIPDTDVISQTQSDWQMPDLYAVIMHNDDYTTMDFVVFLLNAVFDKPIEQAYQLMMQIHQTGRAVVAILPYEIAEMKVDEATSLAEQEQFPLFISIEQA
B11: PS423: ClpS protein, SEQ ID NO: 46 (protein)
chain: MAPTPAGAAVLDKQQQRRHKHASRYRVLLHNDPVNTMEYVVESLRQVVPQLSEQDAIAVMVEAHNTGVGLVIVCDIEPAEFYCEQLKTKGLTSSIEPED
B12: PS420: ClpS protein, SEQ ID NO: 43 (protein)
chain: MSDYSNQISQAGSGVAEDASITLPPERKVVFYNDDFTTMEFVVDVLVSIFNKSHSEAEELMQTVHQEGSSVVGVYTYDIAVSRTNLTIQAARKNGFPLRVEVE

These molecules were tested on amino acid at a terminal position of a polypeptide (assay: Amino acid binding preference of recognition proteins (Tables 1 and 2)). Conditions: Table 1, ClpS proteins; amino acid identity at a terminal position of a polypeptide; inferred from literature and/or demonstrated by the inventors.
Text: It should be appreciated that these sequences and other examples described herein are meant to be non-limiting, and recognition molecules in accordance with the application can include any homologs, variants thereof, or fragments thereof minimally containing domains or subdomains responsible for peptide recognition.

Row | Binding Pref. | Molecule
1 | F, Y, W, L | B1
2 | F, Y, W, L | B2
3 | F, Y, W | B3
4 | F, Y, W, L | B4
5 | F, Y, W, L | B5
6 | F, W | B6
7 | F, W | B7
8 | F, Y, W, L | B8
9 | F, Y, W, L | B9
10 | F, Y, W, L | B10
11 | F, Y, W | B11
12 | F, Y, W, L | B12
